Results reported in US20110239327A1, “Nematicidal Effects of Cysteine Proteinases and Methods of Use Thereof to Treat Nematode Infestation” (priority 2007, published 2011).

Assays:
[1] = tested on: Steinernema feltiae; test: In vitro effect on the beneficial nematode Steinernema feltiae; assay type: cell-based
Experimental: (§1) Eggs of M. incognita race 1 from North Carolina State University, USA were collected from tomato-infected roots grown in a glasshouse at 23° C. in a 16:8 h light-dark regime. Eggs were extracted using 1% hypochlorite (NaClO) solution (Hussey and Barker, 1973) or by picking egg masses from tomato-infected roots. Juveniles (J2) were hatched from the eggs and egg masses in water. Heterodera glycines eggs were obtained from soil samples stored in Rothamsted-Research. Second stage juveniles (J2) were hatched from the eggs in water after 10 days. Pratylenchus penetrans were a gift from Dr. Deeren Anne-Marie from the Institute for Agricultural and Fisheries Research, Merelbeke, Belgium. The beneficial nematodes Steinernema feltiae and Heterorhabditis megidis were a gift from Dr. Paul Williams from Becker Underwood.
(§2) Control wells were set up which contained J2s and distilled water with 16 mM L-cysteine. Each enzyme concentration and the controls were set up in duplicate (i.e. n=2). The actual number of active J2s per well was counted with the aid of an Olympus inverted microscope, prior to the addition of the enzymes, and then the J2s were incubated in the dark at room temperature for 2 hs, 16 hs, 24 hs or 40 hr. The number of live and dead J2s per well was counted after each enzyme incubation. The same procedure was followed when setting up further experiments to compare the effects of these enzymes with Heterodera glycines J2, Pratylenchus penetrans, Steinernema feltiae and Heterorhabditis megidis.
(§3) The beneficial nematodes Hetorhabditis megidis and Steinernema feltiae were incubated with dilutions of actinidin, bromelain and pappain from papaya latex (see concentrations used in table 3). These nematodes reacted differentially to these cysteine proteinases (Tables 4 and 5). […] S. feltiae were dead at all concentrations of actinidin tested. […] After 16 hs of observation the enzyme solutions were diluted with water (to half of the initial concentrations) however, no change in nematode movement was observed after 24 hs.

[2] = tested on: M. incognita J2; test: In planta bioassay, two soil applications: nematode infection of tomato roots; assay type: in vivo, M. incognita on tomato plants; details: two soil applications of enzyme (250 μM papain, 2.2 μM bromelain, 3.3 mM actinidin as printed), soil 16% organic matter, 11 days
Experimental: Oxamyl is supplied as 10% liquid Vydate. 125 μl of a solution 1000 fold dilution of 10% formulation (kindly supplied by DK from NIU) was applied to 5 g of the soil mixture with 16% organic matter, to give a partial nematicidal effect. Soil mixtures were wetted with PBS pH 7.2, 16 hrs prior nematode application of 1000 or 2000 M. incognita J2. Infected soil mixtures were treated with water (control) or 250 μM of active papain in 16 mM of L-cysteine or a combination of Vydate and 250 μM of active papain in 16 mM of L-cysteine. After 48 hs tomato seedlings one month old were added to the treated soils. After 11 days the roots were washed free of soil and chopped to approximately 2 mm pieces. The root pieces of each tomato plant was placed in muslin bags and stained with acid-fuchsin. The stained roots were examined under microscope and all the nematodes present in the roots were counted. […] After 48 hours tomato seedlings one month old were added to the treated soils and after 11 days post infection nematode development inside root tissues was assessed as described above.
The avermectins are macrocyclic lactones produced by the actinomycete Streptomyces avermitilis. […] After 48 hs tomato seedlings one month old were added to the treated soils and after 11 days post infection nematode development inside root tissues was assessed as described above. […]

[3] = tested on: Heterorhabditis megidis; test: In vitro effect on the beneficial nematode Heterorhabditis megidis; assay type: cell-based
Experimental: as §1, §2, §3

[4] = enzyme concentration A (Table 3): actinidin 3.3 mM, bromelain 2.2 mM, papain 250 uM
[5] = enzyme concentration B: actinidin 1.7 mM, bromelain 1.1 mM, papain 125 uM
[6] = enzyme concentration C: actinidin 840 uM, bromelain 560 uM, papain 62.5 uM

B1: actinidin (protein, UniProt P00785 127-380, looked up)
Actinidain: LPSYVDWRSAGAVVDIKSQGECGGCWAFSAIATVEGINKIVTGVLISLSEQELIDCGRTQNTRGCNVGYITDGFQFIINNGGINTEENYPYTAQDGECNVDLQNEKYVTIDTYENVPYNNEWALQTAVTYQPVSVALDAAGDAFKHYSSGIFIGPCGTAIDHAVTIVGYGTEGGIDYWIVKNSWDTTWGEEGYMRILRNVGGAGTCGIATMPSYPVKYNNQNHPKSYSSLINPPAFSMSNDGPVGVDDGQRYSA
notes: cysteine proteinase from kiwi fruit (Actinidia chinensis), Merops C01.007
B1 was tested. Which “state of S. feltiae” value ([1]; all concentrations of actinidin tested) did it give?
The value was “dead”.

And the “nematode motility or behaviour” value [1, 4]?
The value was “All dead”.

What about the “nematode motility or behaviour” value [1, 5] of the same molecule?
Its value is “All dead”.

And the “nematode motility or behaviour” value [1, 6]?
The value was “All dead”.

And the “nematode motility or behaviour” value ([1]; enzyme concentration D: actinidin 420 uM, bromelain 280 uM, papain 31 uM)?
The value was “All dead”.

What about the “nematode motility or behaviour” value ([1]; enzyme concentration E: actinidin 210 uM, bromelain 140 uM, papain 15 uM) of the same molecule?
Its value is “All dead”.

And the “nematode motility or behaviour” value ([1]; enzyme concentration F: actinidin 105 uM, bromelain 70 uM, papain 7.5 uM)?
Its value is “All dead”.

And the “reduction of nematode infection of plants” value [2]?
Its value is 99%.

And the “nematode motility or behaviour” value [3, 4]?
Its value is “All paralysed”.

And the “nematode motility or behaviour” value [3, 5]?
The value was “All paralysed”.

And the “nematode motility or behaviour” value [3, 6]?
Its value is “All paralysed”.

What about the “effect on H. megidis” value ([3]; higher concentrations) of the same molecule?
Its value is “paralysed”.

What about the “effect on H. megidis” value ([3]; lower concentrations) of the same molecule?
The value was “only affected slightly”.
